This note sets out measurements from publication PMC8819685.

In the test the target is Human plasminogen (human).
Chain of Human plasminogen (human) (P00747 20-810): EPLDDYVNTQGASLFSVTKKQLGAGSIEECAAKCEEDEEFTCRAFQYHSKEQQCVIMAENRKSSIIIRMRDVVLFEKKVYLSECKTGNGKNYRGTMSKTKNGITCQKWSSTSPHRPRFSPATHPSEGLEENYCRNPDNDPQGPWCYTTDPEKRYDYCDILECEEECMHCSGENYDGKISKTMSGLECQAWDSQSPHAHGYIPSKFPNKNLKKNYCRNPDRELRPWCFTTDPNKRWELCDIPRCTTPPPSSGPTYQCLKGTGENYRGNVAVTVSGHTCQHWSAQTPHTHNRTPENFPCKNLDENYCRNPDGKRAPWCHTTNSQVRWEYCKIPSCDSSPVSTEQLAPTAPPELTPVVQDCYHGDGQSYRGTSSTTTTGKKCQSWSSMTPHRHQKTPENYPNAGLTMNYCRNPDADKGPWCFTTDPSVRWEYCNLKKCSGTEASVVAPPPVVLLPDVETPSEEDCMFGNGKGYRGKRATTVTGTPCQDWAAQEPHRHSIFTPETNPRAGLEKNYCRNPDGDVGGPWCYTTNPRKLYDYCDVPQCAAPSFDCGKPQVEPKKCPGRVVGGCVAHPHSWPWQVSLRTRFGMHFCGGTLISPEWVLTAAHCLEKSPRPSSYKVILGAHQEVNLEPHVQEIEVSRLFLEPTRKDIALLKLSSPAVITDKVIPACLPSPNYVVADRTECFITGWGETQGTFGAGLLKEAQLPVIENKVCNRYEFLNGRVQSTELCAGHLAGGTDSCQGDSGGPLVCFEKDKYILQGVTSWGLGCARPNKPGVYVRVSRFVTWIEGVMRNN

B1: EPF3, fibrinolytic protein from Pheretima vulgaris (enzyme)
chain: ILGGTEARVGEIPWQLSQQRGGSHSCGASLLRPGSALSAAHCVDGAPPADVRIVAGLHLRSDESTAVASLAESFLIHPSYNVGEGTFPNDIAIIYLLTNINSAPVENIDFALLPPDNVEQFVGFTCVLSGWGRTSASNVLPDALQKVSIDVITTAECDSRMAAVAGADCTDAHIAVFDPALQKGSCNGDSGGPMNCPLSGEFVVAGVTSWGISGGGACLPEYPSVYTRTGFYRQWIIDNIR
Consider B1, for which the plasminogen activation on fibrin plates: fibrinolytic zone of the mixture of EPF3 and plasminogen against that of EPF3 alone (3, 6, 18 h, 37°C) is 20.2%.
